Experimental data published in paper PMC7201923.

Molecular target: KPNA2 (UniProt P52292)
Assay: anti-FLAG co-IP, immunoblot
Settings: sites S97

Substance: IRF3 (from UniProt Q14653)
- binding against the reference: stronger
